In US20060093613A1 (published 2006):

Biological target: T1, influenza virus nucleoprotein peptide on H-2Db (mouse)
T1 peptide: ASNENMDAM
Test: Kd or kinetics

B1: F5 TCR (TCR, V domains shown)
Valpha: GDSVTQMQGQVTLSEDDFLFINCTYSTTWYPTLFWYVQYPGEGPQLLLKVTTANNKGISRGFEATYDKGTTSFHLQKASVQESDSAVYYCVLGDRQGGRALIFGTGTTVSVSP
Vbeta: KAGVTQTPRYLIKTRGQQVTLSCSPISGHRSVSWYQQTPGQGLQFLFEYFSETQRNKGNFPGRFSGRQFSNSRSEMNVSTLELGDSALYLCASSFDSGNSPLHFGNGTRLTVT
binding result: recognises
